Consider four molecules from article PMC6542941.

Test [1] deals with T1, human acid-sensing ion channel 1a wild type hASIC1a-G212 (human) (UniProt P78348).
T1 sequence: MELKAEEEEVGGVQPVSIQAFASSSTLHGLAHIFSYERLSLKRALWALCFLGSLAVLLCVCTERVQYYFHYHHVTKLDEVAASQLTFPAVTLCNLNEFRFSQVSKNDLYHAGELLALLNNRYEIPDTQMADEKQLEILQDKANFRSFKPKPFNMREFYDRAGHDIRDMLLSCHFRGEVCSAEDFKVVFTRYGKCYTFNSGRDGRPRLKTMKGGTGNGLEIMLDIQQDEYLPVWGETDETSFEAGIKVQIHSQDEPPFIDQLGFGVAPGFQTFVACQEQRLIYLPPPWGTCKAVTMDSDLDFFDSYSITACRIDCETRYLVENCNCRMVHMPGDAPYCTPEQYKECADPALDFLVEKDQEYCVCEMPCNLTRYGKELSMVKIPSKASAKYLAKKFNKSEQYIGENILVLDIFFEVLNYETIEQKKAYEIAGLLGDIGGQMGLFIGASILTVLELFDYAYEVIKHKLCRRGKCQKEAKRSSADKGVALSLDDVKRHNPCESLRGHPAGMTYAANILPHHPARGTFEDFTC

Test [2] addresses T2, human acid-sensing ion channel 1a variant hASIC1a-D212 (human) (UniProt P78348).
T2 sequence: T1 sequence with G212D

Another test addresses human ASIC2a (human) (UniProt Q16515).
Sequence of UniProt Q16515 (Q16515 whole entry): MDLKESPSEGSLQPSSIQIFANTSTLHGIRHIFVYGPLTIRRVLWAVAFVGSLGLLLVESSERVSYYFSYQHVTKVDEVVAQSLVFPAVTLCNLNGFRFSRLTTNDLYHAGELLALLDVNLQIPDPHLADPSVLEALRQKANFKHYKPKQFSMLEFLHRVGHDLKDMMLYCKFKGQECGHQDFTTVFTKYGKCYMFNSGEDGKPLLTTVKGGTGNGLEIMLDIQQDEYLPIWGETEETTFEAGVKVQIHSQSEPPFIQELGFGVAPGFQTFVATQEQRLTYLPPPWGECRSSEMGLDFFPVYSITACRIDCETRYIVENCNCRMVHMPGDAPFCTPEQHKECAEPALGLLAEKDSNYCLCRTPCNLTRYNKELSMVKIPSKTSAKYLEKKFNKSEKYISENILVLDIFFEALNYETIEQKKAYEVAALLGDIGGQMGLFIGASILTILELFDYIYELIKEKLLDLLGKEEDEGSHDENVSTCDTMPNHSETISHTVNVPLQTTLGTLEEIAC

Numbering of substitutions follows the chain as printed.

For the molecule “Psalmotoxin1 (from UniProt P60514 1-40) (peptide)”, the IC50 of inhibition of the pH5.0-induced current, whole-cell patch-clamp of CHO cells; PcTx1 pre-applied 60 s in the conditioning pH 7.4 solution in test [1] turned out to be 1.83 nM; in test [2], 1.19 nM.

B1: Mambalgin1 (peptide)
chain: LKCYQHGKVVTCHRDMKFCYHNTGMPFRNLKLILQGCSSSCSETENNKCCSTDRCNK
For the molecule B1, the IC50 of inhibition of the pH5.0-induced current, whole-cell patch-clamp of CHO cells; Mambalgin1 pre-applied 60 s in the conditioning pH 7.4 solution is 10.5 nM in test [1] and 21.7 nM in test [2].

B2: human acid-sensing ion channel 1a variant hASIC1a-D212 (receptor)
chain: T1 sequence with G212D
With B2, in the test with human ASIC2a (human), the IpH5.8/IpH4.0 current ratio of co-transfected CHO cells, whole-cell patch-clamp stood at 0.43.

B3: human acid-sensing ion channel 1a wild type hASIC1a-G212 (receptor)
chain: T1 sequence
In the case of B3, the IpH5.8/IpH4.0 current ratio of co-transfected CHO cells, whole-cell patch-clamp in the test with human ASIC2a (human) was determined as 0.41.
